The values that follow are results of earlier work, collected in publication PMC10769511.

This data set addresses histone H3K4me3 peptide (Homo sapiens) (UniProt P68431).

For orientation: Kd means the free concentration of one partner at which half of the binding sites on the other are occupied at equilibrium, for simple one-to-one binding. PHF2 PHD-Jumonji (from UniProt O75151): the dissociation constant (Kd) was 160 nM.
